Common to all, as to test: cell-based or functional assay
Test [1] has as its target T1, factor VIIIa A1/A3C1C2 dimer, Glu272Ala (human, UniProt P00451 20-391; P00451 1709-2351).
T1 chain 1: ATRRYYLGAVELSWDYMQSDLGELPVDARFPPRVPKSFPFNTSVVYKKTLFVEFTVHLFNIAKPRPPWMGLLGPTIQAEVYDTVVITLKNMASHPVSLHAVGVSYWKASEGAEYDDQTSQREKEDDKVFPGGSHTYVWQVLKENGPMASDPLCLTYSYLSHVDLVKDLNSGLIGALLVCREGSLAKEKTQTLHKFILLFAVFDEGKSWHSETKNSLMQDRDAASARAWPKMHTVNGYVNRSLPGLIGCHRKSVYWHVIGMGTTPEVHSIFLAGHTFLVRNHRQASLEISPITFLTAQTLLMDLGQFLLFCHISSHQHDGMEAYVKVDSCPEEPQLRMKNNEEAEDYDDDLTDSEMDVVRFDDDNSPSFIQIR
T1 chain 2: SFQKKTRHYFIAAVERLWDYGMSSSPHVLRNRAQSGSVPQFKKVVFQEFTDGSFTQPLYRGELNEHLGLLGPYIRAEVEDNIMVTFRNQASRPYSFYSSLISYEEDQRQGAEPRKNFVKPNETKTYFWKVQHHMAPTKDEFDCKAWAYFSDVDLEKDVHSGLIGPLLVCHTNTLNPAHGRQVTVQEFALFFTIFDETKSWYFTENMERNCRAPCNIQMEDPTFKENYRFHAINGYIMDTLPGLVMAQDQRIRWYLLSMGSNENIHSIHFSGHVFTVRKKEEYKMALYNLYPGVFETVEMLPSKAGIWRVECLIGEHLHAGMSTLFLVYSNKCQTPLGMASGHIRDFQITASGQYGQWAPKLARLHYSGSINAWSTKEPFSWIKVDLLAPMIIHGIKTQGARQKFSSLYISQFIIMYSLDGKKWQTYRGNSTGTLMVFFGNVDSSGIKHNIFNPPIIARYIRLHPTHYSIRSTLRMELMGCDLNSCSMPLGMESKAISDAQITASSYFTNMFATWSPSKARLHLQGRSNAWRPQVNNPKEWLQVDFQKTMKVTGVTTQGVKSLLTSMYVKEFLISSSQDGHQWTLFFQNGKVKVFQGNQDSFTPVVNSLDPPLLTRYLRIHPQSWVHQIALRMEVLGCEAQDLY

Test [2] deals with T2, factor VIIIa A1/A3C1C2 dimer, wild type (human, UniProt P00451 20-391; P00451 1709-2351).
T2 sequence 1: T1 chain 1 with A272E
T2 sequence 2: T1 chain 2

In test [3] the target is T3, factor VIIIa A1/A3C1C2 dimer, Glu272Val (human, UniProt P00451 20-391; P00451 1709-2351).
T3 chain 1: T1 chain 1 with A272V
T3 chain 2: T1 chain 2

Test [4] has as its target T4, factor VIIIa A1/A3C1C2 dimer, Glu1984Val (human, UniProt P00451 20-391; P00451 1709-2351).
T4 sequence 1: T1 chain 1 with A272E
T4 sequence 2: T1 chain 2 with E295V

The results in this text go back to patent publication US20090118184A1 (UNIVERSITY OF ROCHESTER, published 2009).

Changes are numbered by the printed parent chain.

B1: factor VIIIa A2 subunit, wild type (other)
chain: SVAKKHPKTWVHYIAAEEEDWDYAPLVLAPDDRSYKSQYLNNGPQRIGRKYKKVRFMAYTDETFKTREAIQHESGILGPLLYGEVGDTLLIIFKNQASRPYNIYPHGITDVRPLYSRRLPKGVKHLKDFPILPGEIFKYKWTVTVEDGPTKSDPRCLTRYYSSFVNMERDLASGLIGPLLICYKESVDQRGNQIMSDKRNVILFSVFDENRSWYLTENIQRFLPNPAGVQLEDPEFQASNIMHSINGYVFDSLQLSVCLHEVAYWYILSIGAQTDFLSVFFSGYTFKHKMVYEDTLTLFPFSGETVFMSMENPGLWILGCHNSDFRNRGMTALLKVSSCDKNTGDYYEDSYEDISAYLLSKNNAIEPR
B1: the “Factor VIIIa Decay relative to the WT value, Factor IXa absent” value in test [1] is 1.95 relative to WT; in test [2], 1 relative to WT; in test [3] it was 2.72 relative to WT; in test [4], 0.26 relative to WT. For the same molecule, the “Factor VIIIa Decay relative to the WT value, Factor IXa present” value is 1.06 relative to WT in test [1], 1 relative to WT in test [2], 1.03 relative to WT in test [3] and 0.13 relative to WT in test [4]. The “Factor VIIIa Decay, Factor IXa absent” value is 0.164 min⁻¹ in test [1], 0.0836 min⁻¹ in test [2], 0.227 min⁻¹ in test [3] and 0.0217 min⁻¹ in test [4]. In addition, the “Factor VIIIa Decay, Factor IXa present” value in test [1] came out at 0.0163 min⁻¹; in test [2], 0.0154 min⁻¹; in test [3], 0.0159 min⁻¹; in test [4], 0.0019 min⁻¹.
